The numbers were not newly measured in paper PMC4303274, which cites them from elsewhere.

Data set [1] deals with CaMKII (Homo sapiens) (UniProt Q9UQM7).
Data set [2] concerns the target neurogranin (Homo sapiens) (UniProt Q92686).
Data set [3] concerns the target CaMKII (Homo sapiens) (UniProt Q9UQM7). This is another data set of the same source.

pKd: −log10 of the molar value. Read-outs that look alike come from different tables or passages of the source.

Chain of CaMKII (Homo sapiens) (Q9UQM7 whole entry): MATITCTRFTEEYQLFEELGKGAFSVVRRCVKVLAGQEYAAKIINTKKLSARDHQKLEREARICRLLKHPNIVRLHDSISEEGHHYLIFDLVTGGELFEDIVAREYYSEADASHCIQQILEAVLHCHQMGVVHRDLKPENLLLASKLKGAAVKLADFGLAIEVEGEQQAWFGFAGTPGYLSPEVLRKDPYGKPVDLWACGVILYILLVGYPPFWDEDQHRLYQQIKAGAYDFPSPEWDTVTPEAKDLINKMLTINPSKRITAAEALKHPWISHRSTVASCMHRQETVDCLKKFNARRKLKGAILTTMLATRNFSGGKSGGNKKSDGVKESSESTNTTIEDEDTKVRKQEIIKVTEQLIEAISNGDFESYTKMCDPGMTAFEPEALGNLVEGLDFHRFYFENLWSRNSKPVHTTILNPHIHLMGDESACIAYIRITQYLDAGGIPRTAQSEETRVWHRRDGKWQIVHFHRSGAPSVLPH
Chain of neurogranin (Homo sapiens) (Q92686 whole entry): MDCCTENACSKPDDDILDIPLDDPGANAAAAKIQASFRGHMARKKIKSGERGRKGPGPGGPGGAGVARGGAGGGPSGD

The term pKd denotes the negative decadic logarithm of the Kd, by convention in mol/L. In the case of “calmodulin C-lobe fragment TR2C (T state) TR2C (from UniProt P0DP23)”, the pKd in data set [1] was 4.06. For the substance “calmodulin C-lobe fragment TR2C (R state) TR2C (from UniProt P0DP23)”, the results for the pKd in data set [2] and in data set [3] were 5.98 and 6.02, respectively.
